From the supplement of paper PMC10724198
± gives the standard deviation of the averaged measurements.

Columns and labels:
Saccharomyces cerevisiae [1] = test: protein stability index of tFT-peptide fusion (C-terminal peptide) (PSI (0-1 scale)); higher = more stable (slower turnover); settings: genetic background: wild type; temperature: 30 C
Saccharomyces cerevisiae [2] = test: as above
Procedure: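 MPS profiling in S. cerevisiae of the tFT-X12 degron library: putative degron peptides plus stable controls, 12 aa, fused to the C-terminus of a sfGFP-mCherry timer. Cells are FACS-sorted into 8 mCherry/sfGFP bins and deep-sequenced. PSI runs from 0 (unstable) to 1 (stable). Backgrounds are wild type, das1Δ and doa10Δ at 30 °C, and wild type, das1Δ, cdc34-1 and cdc53-1 at 37 °C; 2-3 technical replicates each.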

[3] = genetic background: cdc34-1, temperature: 37 C
[4] = genetic background: cdc53-1, temperature: 37 C
[5] = genetic background: das1 deletion, temperature: 30 C
[6] = genetic background: das1 deletion, temperature: 37 C
[7] = genetic background: doa10 deletion, temperature: 30 C
[8] = genetic background: wild type, temperature: 30 C
[9] = genetic background: wild type, temperature: 37 C
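Further: PSI is a weighted mean of sequencing reads over stability bins, variants kept only with over 10 reads, mCherry proximal and sfGFP distal, peptide attached via GGGS linker.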

Sequence | protein stability index (Saccharomyces cerevisiae [1]) | protein stability index (Saccharomyces cerevisiae [2]; [3]) | protein stability index (Saccharomyces cerevisiae [2]; [4]) | protein stability index (Saccharomyces cerevisiae [2]; [5]) | protein stability index (Saccharomyces cerevisiae [2]; [6]) | protein stability index (Saccharomyces cerevisiae [2]; [7]) | protein stability index (Saccharomyces cerevisiae [2]; [8]) | protein stability index (Saccharomyces cerevisiae [2]; [9])
FHRSVVRLWLRN | 0.301 ± 0.041 | 0.49 ± 0.06 | 0.619 ± 0.024 | 0.604 ± 0.02 | 0.679 ± 0.0092 | 0.114 ± 0.0044 | 0.104 ± 0.031 | 0.181 ± 0.066
FLAPPFLPPPPA | 0.748 ± 0.016 | 0.693 ± 0.021 | 0.7351 ± 0.00039 | 0.672 ± 0.014 | 0.758 ± 0.016 | 0.683 ± 0.02 | 0.705 ± 0.011 | 0.737 ± 0.015
FLCLLASFVVCF | 0.363 ± 0.008 | 0.3271 ± 0.00067 | 0.312 ± 0.008 | 0.281 ± 0.039 | 0.384 ± 0.029 | 0.249 ± 0.0083 | 0.285 ± 0.028 | 0.336 ± 0.015
FLFFWRASLFFW | 0.229 ± 0.023 | 0.116 ± 0.0025 | 0.164 ± 0.0095 | 0.183 ± 0.029 | 0.278 ± 0.027 | 0.178 ± 0.018 | 0.15 ± 0.029 | 0.191 ± 0.022
FLIYMFRHCFFH | 0.345 ± 0.029 | 0.537 ± 0.071 | 0.626 ± 0.034 | 0.593 ± 0.015 | 0.676 ± 0.039 | 0.268 ± 0.013 | 0.278 ± 0.028 | 0.393 ± 0.018
FLMCVFFLCFSN | 0.34 ± 0.028 | 0.304 ± 0.031 | 0.41 ± 0.051 | 0.308 ± 0.024 | 0.472 ± 0.015 | 0.208 ± 0.0021 | 0.22 ± 0.019 | 0.325 ± 0.029
FLSLPLFILFLS | 0.132 ± 0.014 | 0.229 ± 0.036 | 0.232 ± 0.041 | 0.283 ± 0.029 | 0.39 ± 0.02 | 0.1217 ± 0.00068 | 0.0821 ± 0.013 | 0.119 ± 0.0033
FLSLSFLLLHFP | 0.471 ± 0.064 | 0.398 ± 0.018 | 0.39044 ± 0.00026 | 0.385 ± 0.04 | 0.535 ± 0.0059 | 0.543 ± 0.017 | 0.434 ± 0.041 | 0.479 ± 0.005
FLVLFYCTFWVR | 0.329 ± 0.089 | 0.162 ± 0.0078 | 0.242 ± 0.032 | 0.222 ± 0.019 | 0.3245 ± 0.0025 | 0.197 ± 0.006 | 0.211 ± 0.042 | 0.349 ± 0.071
FLVPLSPMLLSA | 0.4 ± 0.019 | 0.446 ± 0.011 | 0.451 ± 0.005 | 0.375 ± 0.031 | 0.4942 ± 0.0011 | 0.323 ± 0.012 | 0.347 ± 0.019 | 0.463 ± 0.014
FMCCFWFFWLGF | 0.459 ± 0.031 | 0.522 ± 0.041 | 0.518 ± 0.0095 | 0.421 ± 0.024 | 0.53 ± 0.0084 | 0.451 ± 0.006 | 0.438 ± 0.0098 | 0.501 ± 0.0061
FNLFWPVSAFVV | 0.374 ± 0.019 | 0.506 ± 0.061 | 0.563 ± 0.011 | 0.436 ± 0.03 | 0.5749 ± 0.0047 | 0.211 ± 0.0037 | 0.254 ± 0.0078 | 0.398 ± 0.044
FNMLFVVRLLYM | 0.365 ± 0.0057 | 0.37 ± 0.033 | 0.418 ± 0.0046 | 0.334 ± 0.053 | 0.473 ± 0.026 | 0.259 ± 0.027 | 0.257 ± 0.045 | 0.396 ± 0.0043
FPFFLLAAPFLA | 0.237 ± 0.036 | 0.564 ± 0.007 | 0.621 ± 0.0096 | 0.546 ± 0.019 | 0.6439 ± 0.0013 | 0.16 ± 0.0077 | 0.19 ± 0.026 | 0.295 ± 0.026
FPFFVFRVWFGA | 0.464 ± 0.014 | 0.4642 ± 0.0036 | 0.535 ± 0.01 | 0.414 ± 0.026 | 0.565 ± 0.006 | 0.32953 ± 0.00015 | 0.346 ± 0.033 | 0.502 ± 0.022
FPPFALLLIIND | 0.406 ± 0.089 | 0.475 ± 0.015 | 0.54 ± 0.039 | 0.396 ± 0.023 | 0.581 ± 0.058 | 0.415 ± 0.0098 | 0.421 ± 0.029 | 0.525 ± 0.0097
FPRQFVYLPLLF | 0.487 ± 0.011 | 0.647 ± 0.064 | 0.709 ± 0.025 | 0.555 ± 0.011 | 0.696 ± 0.017 | 0.372 ± 0.018 | 0.402 ± 0.032 | 0.595 ± 0.02
FQPLELFFVCVF | 0.305 ± 0.014 | 0.0866 ± 0.04 | 0.154 ± 0.025 | 0.199 ± 0.02 | 0.235 ± 0.014 | 0.163 ± 0.014 | 0.181 ± 0.023 | 0.212 ± 0.016
FRCFVLPYFGRF | 0.435 ± 0.036 | 0.608 ± 0.032 | 0.699 ± 0.021 | 0.647 ± 0.0081 | 0.7 ± 0.0079 | 0.372 ± 0.037 | 0.37 ± 0.015 | 0.5489 ± 0.0039
FRDRFLRWNLVS | 0.223 ± 0.022 | 0.481 ± 0.073 | 0.676 ± 0.013 | 0.6489 ± 0.0058 | 0.757 ± 0.025 | 0.129 ± 0.026 | 0.14 ± 0.025 | 0.21 ± 0.02
FRVFYSFLLCLS | 0.22 ± 0.0028 | 0.194 ± 0.0057 | 0.189 ± 0.01 | 0.228 ± 0.015 | 0.307 ± 0.0087 | 0.178 ± 0.0048 | 0.162 ± 0.0088 | 0.219 ± 0.0085
FRVILISACESV | 0.464 ± 0.0071 | 0.565 ± 0.016 | 0.582 ± 0.011 | 0.403 ± 0.032 | 0.5562 ± 0.0034 | 0.384 ± 0.032 | 0.397 ± 0.019 | 0.5385 ± 0.004
FSFPAFTFIVSI | 0.4357 ± 0.0022 | 0.352 ± 0.03 | 0.346 ± 0.006 | 0.336 ± 0.024 | 0.475 ± 0.024 | 0.502 ± 0.031 | 0.329 ± 0.0099 | 0.447 ± 0.035
FSICGFYSLCFG | 0.492 ± 0.045 | 0.569 ± 0.028 | 0.617 ± 0.019 | 0.503 ± 0.021 | 0.628 ± 0.013 | 0.4968 ± 0.0046 | 0.512 ± 0.0077 | 0.599 ± 0.023
FSLLFVRFCFFL | 0.305 ± 0.037 | 0.2674 ± 0.00097 | 0.323 ± 0.0039 | 0.256 ± 0.037 | 0.4195 ± 0.0026 | 0.227 ± 0.0074 | 0.248 ± 0.039 | 0.3372 ± 0.0022
FSLLLSLSLFHC | 0.31 ± 0.015 | 0.547 ± 0.053 | 0.555 ± 0.018 | 0.534 ± 0.0069 | 0.549 ± 0.006 | 0.183 ± 0.0059 | 0.2 ± 0.025 | 0.356 ± 0.0068
FSVLVVYTRLFQ | 0.414 ± 0.091 | 0.427 ± 0.064 | 0.452 ± 0.033 | 0.332 ± 0.042 | 0.558 ± 0.013 | 0.306 ± 0.011 | 0.321 ± 0.033 | 0.508 ± 0.012
FTEFWFFKQMSV | 0.171 ± 0.016 | 0.579 ± 0.019 | 0.761 ± 0.015 | 0.618 ± 0.031 | 0.7757 ± 0.0069 | 0.11 ± 0.01 | 0.126 ± 0.022 | 0.137 ± 0.04
FTRWLVYCTPLC | 0.516 ± 0.024 | 0.554 ± 0.033 | 0.569 ± 0.0098 | 0.46 ± 0.011 | 0.586 ± 0.0022 | 0.437 ± 0.029 | 0.441 ± 0.012 | 0.567 ± 0.013
FVFFRFSLLFFF | 0.337 ± 0.049 | 0.332 ± 0.022 | 0.344 ± 0.04 | 0.331 ± 0.029 | 0.449 ± 0.0046 | 0.269 ± 0.0034 | 0.225 ± 0.027 | 0.356 ± 0.014
